Source: the DeepSol protein solubility set

Assay: soluble on expression in E. coli; label from the status in PepcDB or PDB records

For “MLGFNGERLDPASGAFHLGNGYRAYSPALMRFHCPDSLSPFGASGVNPYAYCAGDPANRADPSGHLSWQAWTGIGLAVASLALAAFTAGTSIIASGGIVAALESASAITLAEGGLAVVSDMTAIACGAMEASDPQAAAALSWVSLACGAMGMVHAGYGAVRGIDRKLGAFLQENSRFLGKITRGERDSLGIPLGGGLTKCFRPASEMEGASAGIALGRLHRSSSTPDMEAFLALPAAKRKRIGSGVSGVVYEAGRGWVVKIAIDPLPIETMEREAEIFRAVHGPRSALVAENMLWMKRIPGVPVNTLNLLADEKAEMWQKTLAEVKRLQEMGIHHGDPSWNNLLFDQQTGTVSFIDFGKSRYLDGFAPATLEHHHHHH”, which “soluble on expression in E. coli” value is on record?
Its value is “soluble”.

Which “soluble on expression in E. coli” value does the source give for “MKVIEVTHPIQSNQFITENVAMAFGFFDGMHRGHDKVFQVLDEKAKEHQLKKAVMTFDPHPSVVLNPERKRTTYLTPLSDKLEMIAEHGIDYCIVINFSSRFANVTSDDFIKNYIINNHVKEVIAGFDFTFGKFGKGNMTVLQESKAFNTTIVGKQEMDSEKISTTAIRQALTDGHLQKANDELGYIYRIKGTVVQGEKRGRTIGFPTANVQPSDDYVLPKKGVYAVSMEIGPESKLHRGVANVGVKPTFHDPTRAELVIEVNIFDFNENIYGERVTVYWHHFLRPEVKFDGIDPLVKQMNEDKAQAKHLLSIDFDDDISYNI” here?
The value was “not soluble”.

Which “soluble on expression in E. coli” value does the source give for “LRLWALTATECRLLLSTRWNVGRLYQLPVAASAEFASYQTQRDQLRQTFKNIASEILNPDDPRTDLPFHIALSVIEMRSNDGVVPEPLRDDE” here?
Its value is “not soluble”.

For “MAHHHHHHMRLLTHNFLACLKCDTYPLLVTAAEMEEIPVEYDAEFTRRMLARVDYASLRTTFHALREAHESVRGPSHDEGADTAEGALASSELPETMEGADFSDHSAFLRTAHYAMNVVAVRNGTLECPACKTTFSINDFIPNFVPEAK”, which “soluble on expression in E. coli” value is on record?
Its value is “soluble”.

Which “soluble on expression in E. coli” value does the source give for “MSWWQRAVIYQVYPRSFQDTNGDGVGDLEGIRRRLPYLKSLGVDALWLSPFYKSPMKDFGYDVADYCDVDPVFGTLQDFDRLLEEAHALGLKVLVDLVPNHTSSEHPWFLESRASRNSPKRDWYIWKDPAPDGGPPNNWQSFFGGPAWTLDEATGQYYLHLFLPEQPDLNWRNPEVREAIKEVMRFWLRRGVDGFRVDVLWLLGKDPLFRDEPGSPLWRPGLPDRARHEHLYTEDQPETYAYVREMRQVLDEFSEPGRERVMVGEIYLPLPRLVRYYAAGCHLPFNFSLVTEGLSDWRPENLARIVETYEGLLSRWDWPNWVLGNHDQPRLASRLGEPQARVAAMLLFTLRGTPTWYYGDELALPNGLIPPEKVQDPAALRQRDREPTAYHTLGRDPERTPMPWDASPYGGFSTVEPWLPLNPDYRTRNVAAQEKDPRSMLHLVKRLIALRKDPDLLYGAYRTYRAREGVYAYLRGEGWLVALNLTEKEKALELPRGGRVVLSTHLDREERVGERLFLRPDEGVAVRLD” here?
The value was “soluble”.

With “MGSDKIHHHHHHMASISIRCPSCSATEGVVRNGKSTAGHQRYLCSHCRKTWQLQFTYTASQPGTHQKIIDMAMNGVGCRASARIMGVGLYTVLRHLKNSAESVTSRIQPGSDVIVCAEMDEHWGYVGAKSRQRWLFYAYDRIRRTVVAHVFGERTLATLERLLSLLSAFEVVVWMTDGCPLYESRLKGKLHVISKRYTQRIERHNLNLRQHLARLVRKSLSFSKSVELHDKAIGHYLNIKHYQ” as the sequence, how does the “soluble on expression in E. coli” value read?
The value was “not soluble”.

Which “soluble on expression in E. coli” value does the source give for “MKKDIILSGVGGQGILSIATVIGKAALKEGLYMKQAEVHGMSQRGGDVQSNLRISDKPIASDLIPSGKCDLIISLEPMEGLRYLPYLSPEGWLVTNETPFVNIPNYPEEDKVMAEINKLPHKIVLNVDKVAKEVGSARVANIVLLGATIPFLGIDYEKVQDSIREIFLRKGEAIVEMNLKALAAGKEIAEKLMQ” here?
The value was “not soluble”.

With “MGSDKIHHHHHHMPFDDIQCSPLLVRDGTDNIMQVLSDTDKPTASAQRDMPQEFLPPRCTFSAEDWRILARQWYPVARSVDVKSSPVAVTLLDLELVTYRTPAGVHVARDLCPHRGVPLSMGCVEGDELVCAYHGLRYAADGQCRKIPAQPELKPSAKFRLTVFPAVERYGLVWTCLNPQGGEANLPPMPSWGDPLCQSILPPFVDIAGSAGRQVEGFVDVAHFAFVHHDAFADRNRPEVPMYQTEFTDFGLRTEYWSNVSNYPKALQHLAPDDFSWLRVYEIYPPFCARLTVHFPNEGRLNILNAASPVSARKTRLFVPITRNFDTTGSLDDVYAFNAQIFAEDQAIVERQRPEDLPLDMQAEAHFAADRTSVGYRRLLREMGLTMAYAG” as the sequence, how does the “soluble on expression in E. coli” value read?
The value was “not soluble”.

For “MAHHHHHHMRAESSGSESQSRQSERTCGVSPGGPGGPGASPSIVVAVRKRPRIPGREDDENDVVRCGENGGPSVTVYEPRTKLDLTPIIEPSSFSYDHVFGEACTNEEVYRGCCQPLLQNVREGGGAVIFAFGQTGSGKTHTMLGTGERPGLYSLAVTELLTMTEHSTMTASFYEAYGAKLYDLLNDRAEVKMLQDEYQNVHIVGITEQIVSSVDDVNALMMRGQQLRAIGTTHANDRSSRSHAVLEIKLKLADSSSESQLGRITFVDLAGSERASDTAETDAKTRREGAEINKSLLALKECIRAMSMRKRHIPFRGSKLTQILRESFVGRCKTCVIAAISPCQGHCEDTLNTLRYADRIKELKGPANPHNGVKPIPCKTCGQPIFIGDRHVCKRQLVVCPHCRQDVDKQELDTHMSECKESPMRCQYCNERMLRSESVGHSRRCARAPIRCGACGATVPRQLIDRHAQQECAEAKVKCRYCGCVQSRQLLAAHEQNCDAAKVACPHCLQFMRKRRLDGHVATCVRNLSRAMHTPRSTALNIIASTSMETSQTLASSSSSIGAQQSIPKSATAQTAASSRASSSHNRNVAAEPAGGQVDLVAADEGTGPLNFTRAHSSRRSSAQLASGVSLANQSQSNRAPGAGGRWNAGALGADEVSAACDSDCGSVVCPYSRYGCPVKVTRLNVAAHLKESMQQHLELVTTYADRVDEQNMQLRRLVIHETDTLSSRVTMERLDK”, which “soluble on expression in E. coli” value is on record?
Its value is “not soluble”.

With “MGSQKRLVQRVERKLEQTVGDAFARIFGGSIVPQEVEALLRREAADGIQSLQGNRLLAPNEYIITLGVHDFEKLGADPELKSTGFARDLADYIQEQGWQTYGDVVVRFEQSSNLHTGQFRARGTVNPDVETHPPVIDCARPQSNHAFGAEPGVAPMSDNSSYRGGQGQGRPDEYYDDRYARPQEDPRGGPDPQGGSDPRGGYPPETGGYPPQPGYPRPRHPDQGDYPEQIGYPDQGGYPEQRGYPEQRGYPDQRGYQDQGRGYPDQGQGGYPPPYEQRPPVSPGPAAGYGAPGYDQGYRQSGGYGPSPGGGQPGYGGYGEYGRGPARHEEGSYVPSGPPGPPEQRPAYPDQGGYDQGYQQGATTYGRQDYGGGADYTRYTESPRVPGYAPQGGGYAEPAGRDYDYGQSGAPDYGQPAPGGYSGYGQGGYGSAGTSVTLQLDDGSGRTYQLREGSNIIGRGQDAQFRLPDTGVSRRHLEIRWDGQVALLADLNSTNGTTVNNAPVQEWQLADGDVIRLGHSEIIVRMH” as the sequence, how does the “soluble on expression in E. coli” value read?
Its value is “soluble”.

For “MGSDKIHHHHHHMVRLWLMYKNKEEQANMQVEKDVIYDSAYNLAADLYVPDEANGGAIVYAHGGGWFRGDKENESDLGKYFADAGYLFTIPNFRLAPKYLYPTAQNDFDHFINWLLASPYDFDRERLGLLGASSGGTMVLQNSLASGYPLVAWSPVVDFANWVQKNQMVKASVDGKKELGLTEIHEIHDSFYKYFVQTYLGGLDPRLLTAVNPTNHLTDQLGPALLFNSADELMPLPSALHFLQQAAMFGRDIGLHVVPGTGHARDYTSFALPETKRFFDHHLFTTVEDKTLNKATD”, which “soluble on expression in E. coli” value is on record?
The value was “not soluble”.

For “MGSDKIHHHHHHMGTVLIHVCCAPDLLTTIFHVRDAEFFFYNPNIQPLSEYEKRREAVDKVANHFSLNVRYGEYSTEEIRKWYTAVKDYKDLGEGSKRCERCISFLLERTAQEARKRGHESFSTTLLASPRKNLPMIENIGKTIEEKYGVKFFFKNFRKGGAYQEGVRLSKELGIYRQNYCGCVFSLLERREKHAEISRKRGHM”, which “soluble on expression in E. coli” value is on record?
The value was “not soluble”.

For “MPVLNLNDPQAVERYEEFMRQSPYGQVTQDLGWAKVKNNWEPVDVYLEDDQGAIIAAMSMLLGDTPTDKKFAYASKGPVMDVTDVDLLDRLVDEAVKALDGRAYVLRFDPEVAYSDEFNTTLQDHGYVTRNRNVADAGMHATIQPRLNMVLDLTKFPDAKTTLDLYPSKTKSKIKRPFRDGVEVHSGNSATELDEFFKTYTTMAERHGITHRPIEYFQRMQAAFDADTMRIFVAEREGKLLSTGIALKYGRKIWYMYAGSMDGNTYYAPYAVQSEMIQWALDTNTDLYDLGGIESESTDDSLYVFKHVFVKDAPREYIGEIDKVLDPEVYAELVKD”, which “soluble on expression in E. coli” value is on record?
The value was “soluble”.

For “MQFHIDDMTCGGCASTVKKTILTLDANATVRTDPATRLVDVETSLSAEQIAAALQKAGFPPRER”, which “soluble on expression in E. coli” value is on record?
Its value is “not soluble”.

For “MGSDKIHHHHHHMVEKLASSEVANRLNEWYDTIKQQDVERASKLRNEVQEAINQMEEDQNVLQYFNLIDSRFRQVIEEFDKSKTILKSIKNQTERSETDQLLRYYYFFFNGLYEFYKRNYIQAIHYYRQAENFLISIPDEIEHAEFHIQLANAYYGIEQNFFSLSHAKKALNIYLNHENYVNRLITTQLTIAANELDLKQYGSAETLYKKAIKTASEHNHAFMEVLGYFNLGICYELQDKLEFARDCFEAALDISYPQENKRDSYLRIKYMLARTLFKMELVDEAMDWFEDAQTLVDATNEETYQAKLKIIYSIYKTYDETSIDNGLEVLREKKLWHDVSDLTTNAARHFKKKEMFKLATKYFSEALLAKEKIPMLHKEVESE”, which “soluble on expression in E. coli” value is on record?
The value was “not soluble”.

Which “soluble on expression in E. coli” value does the source give for “MSLARQVTAFNTGWQFKKGPFATDPMRAASQWDGKWETVEIPHTWNAMDMQVQSGSFYEGAGYYRKTQFFPHDLEGKRVFLRFEGVGACAEVYVNGKLAGTHKGGYSAFACEIGTALKLGAENEIIVKADNKARPDVIPVNQNLFGVYGGIYRPVWLIVTEQNNITVTDCASPGVYITQKDVSKKSADITVKVKLDNAGLQPAAVTLENTIYTQEGQKVGTHSRSFDLSPQGTQTYLSTFKLKNPHLWQGRKDPYLYKVVCRLMADGKVIDEVVQPLGVRKYEIVAGKGFFLNGEKYSMYGVTRHQDWWGLGSALKNEHHDFDLAAIMDVGATTVRFAHYQQSDYLYSRCDTLGLIIWAEIPCVNRVTGYETENAQSQLRELIRQSFNHPSIYVWGLHNEVYQPHEYTAALTRSLHDLAKTEDPDRYTVSVNGYGHMDHPVNLNADIQGMNRYFGWYEKKIQDIKPWVEQLEKDYPYQKLMLTEYGADANLAHQTEYLGDALNWGKPFYPETFQTKTHEYQWSIIKDHPYIIASYLWNMFDFAVPMWTRGGVPARNMKGLITFDRKTKKDSYFWYKANWSEEPVLYLTQRRNADREKRTTAVTVYSNIGTPKVYLNGQELSGIRNGYTDVHYVFDNVSLADGKNILKAVVSTKGKEYTDEIEWNYSGEKNREIDSYENKNEHSGEGHHHHHH” here?
Its value is “soluble”.

Which “soluble on expression in E. coli” value does the source give for “GPGSMSAIVPAAHAREDMGGCAPCRVSSFHPCEGDGAEEKECNASSGADAAAAAEPLDPLRCFSAFDVLRDVLAACTCAPALSRSTEKGADSPSLLPGAPLPSAWRTEQTREALRTLVDLVAADVGVSSARHGQGEAPEEAEIARSRLSVDALLLHLTTEGPNLRAALRRRRRQLLPMPPRDDATTQSEREACDEAHAACEEDEALAALTRCAASVALINRDLGSSARKGRKAVQTAASCVLQTRTALSLLRTSSLVHQPLRAGAGHAAASRSAIAAADVSAYWCSTGCMGLDQALGGGGFRSGWVTEVYGEAGAGKTQLGLQCLLQQAATDVCHAAVALALASGADFTSLAHMATTTGMCGSRSPVVKCMEVFDRDAVEAARCAVVYLVSEDVPTSRLGPLAAAAVGRAVRAVRLHPLVNQLPSGVVKTVWGCVERTCTVPTVLSRLQIRHVASVAEVLRLLEPLPHPQLAQVSRTSSPPNVIPNRAQRPRNSNLVEAVRVLAGTHGRAVVVLDSVAAAVVAGQWDMQGVAQADATVTALSLRLRQAAMTHNWCIVVTNQVRAIPTTARQRQCALAPIKRARSPTTSSTASAPSVTRTVVPALGFSWASAAHCRVFLRKSLSHGVRQLVLRHAPSHPPAQASYLITEHGIEDA” here?
Its value is “not soluble”.
